Results published in the supplement of paper PMC10065799, “High-throughput profiling of sequence recognition by tyrosine kinases and SH2 domains using bacterial peptide display” (eLife, 2023).

What was measured:
Fes = Fes (UniProt P07332); experiment: phosphorylation enrichment, bacterial display (enrichment ratio); higher = better substrate or ligand; peptides without Tyr show the background
Fer (mouse) = experiment: as above
Fyn = Fyn (UniProt P06241); experiment: as above
AncSZ = experiment: as above
EPHB2 = EPHB2 (UniProt P29323); experiment: as above
MERTK = MERTK (UniProt Q12866); experiment: as above
EPHB1 = EPHB1 (UniProt P54762); experiment: as above
FGFR3 = FGFR3 (UniProt P22607); experiment: as above
c-Src = experiment: as above
Jak2 = Jak2 (UniProt O60674); experiment: as above
Hck = Hck (UniProt P08631); experiment: as above
c-Abl (mouse) = experiment: as above
FGFR1 = FGFR1 (UniProt P11362); experiment: as above
SHP2-C SH2 = experiment: SH2 binding enrichment of the phosphorylated peptide, bacterial display (enrichment ratio); higher = better substrate or ligand; peptides without Tyr show the background
c-Src SH2 = experiment: as above
Grb2 SH2 = Grb2 SH2 (UniProt P62993); experiment: as above
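Throughout, for SH2 binding enrichment of the phosphorylated peptide, bacterial display: peptide library displayed on the E. coli surface as eCPX fusions, selected cells deep-sequenced, score is each peptide's frequency after selection divided by its frequency in the input.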
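Throughout, for phosphorylation enrichment, bacterial display: 11-residue human phosphosite peptides and single-mutation variants displayed on the E. coli surface, counted by deep sequencing, each peptide's frequency after selection divided by its frequency in the unselected input library; frequency after pTyr selection over input frequency; kinase dosed for 20-30% of maximal phosphorylation in three min.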

Sequence of EPHB2 (P29323 whole entry, looked up): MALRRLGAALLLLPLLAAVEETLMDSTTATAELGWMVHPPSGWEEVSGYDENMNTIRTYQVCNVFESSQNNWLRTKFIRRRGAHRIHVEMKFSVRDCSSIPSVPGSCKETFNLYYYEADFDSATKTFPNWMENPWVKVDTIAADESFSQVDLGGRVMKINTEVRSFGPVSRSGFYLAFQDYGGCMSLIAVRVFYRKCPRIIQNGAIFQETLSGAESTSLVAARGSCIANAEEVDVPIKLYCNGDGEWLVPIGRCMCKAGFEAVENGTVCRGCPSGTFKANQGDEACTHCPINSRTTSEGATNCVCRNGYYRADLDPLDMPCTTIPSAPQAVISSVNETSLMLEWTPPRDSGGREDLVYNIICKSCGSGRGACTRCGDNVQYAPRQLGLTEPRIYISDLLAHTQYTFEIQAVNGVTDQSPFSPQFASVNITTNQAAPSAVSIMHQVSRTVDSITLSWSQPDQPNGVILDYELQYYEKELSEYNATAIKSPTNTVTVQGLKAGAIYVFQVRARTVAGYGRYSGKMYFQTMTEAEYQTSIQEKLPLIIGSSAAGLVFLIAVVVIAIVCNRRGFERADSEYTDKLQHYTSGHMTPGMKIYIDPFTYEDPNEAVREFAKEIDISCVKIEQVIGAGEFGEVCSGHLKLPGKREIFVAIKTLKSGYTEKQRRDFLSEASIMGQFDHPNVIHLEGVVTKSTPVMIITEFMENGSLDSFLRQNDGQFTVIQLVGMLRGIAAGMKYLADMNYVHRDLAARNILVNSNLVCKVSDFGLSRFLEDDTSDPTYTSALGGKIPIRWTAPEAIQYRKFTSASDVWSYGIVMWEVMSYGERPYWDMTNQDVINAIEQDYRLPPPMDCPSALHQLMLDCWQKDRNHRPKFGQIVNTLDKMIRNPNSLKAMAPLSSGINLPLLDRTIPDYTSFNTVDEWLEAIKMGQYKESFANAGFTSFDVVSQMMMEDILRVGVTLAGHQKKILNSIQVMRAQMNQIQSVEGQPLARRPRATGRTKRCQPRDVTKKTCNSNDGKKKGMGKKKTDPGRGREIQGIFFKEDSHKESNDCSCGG
Sequence of EPHB1 (P54762 whole entry, looked up): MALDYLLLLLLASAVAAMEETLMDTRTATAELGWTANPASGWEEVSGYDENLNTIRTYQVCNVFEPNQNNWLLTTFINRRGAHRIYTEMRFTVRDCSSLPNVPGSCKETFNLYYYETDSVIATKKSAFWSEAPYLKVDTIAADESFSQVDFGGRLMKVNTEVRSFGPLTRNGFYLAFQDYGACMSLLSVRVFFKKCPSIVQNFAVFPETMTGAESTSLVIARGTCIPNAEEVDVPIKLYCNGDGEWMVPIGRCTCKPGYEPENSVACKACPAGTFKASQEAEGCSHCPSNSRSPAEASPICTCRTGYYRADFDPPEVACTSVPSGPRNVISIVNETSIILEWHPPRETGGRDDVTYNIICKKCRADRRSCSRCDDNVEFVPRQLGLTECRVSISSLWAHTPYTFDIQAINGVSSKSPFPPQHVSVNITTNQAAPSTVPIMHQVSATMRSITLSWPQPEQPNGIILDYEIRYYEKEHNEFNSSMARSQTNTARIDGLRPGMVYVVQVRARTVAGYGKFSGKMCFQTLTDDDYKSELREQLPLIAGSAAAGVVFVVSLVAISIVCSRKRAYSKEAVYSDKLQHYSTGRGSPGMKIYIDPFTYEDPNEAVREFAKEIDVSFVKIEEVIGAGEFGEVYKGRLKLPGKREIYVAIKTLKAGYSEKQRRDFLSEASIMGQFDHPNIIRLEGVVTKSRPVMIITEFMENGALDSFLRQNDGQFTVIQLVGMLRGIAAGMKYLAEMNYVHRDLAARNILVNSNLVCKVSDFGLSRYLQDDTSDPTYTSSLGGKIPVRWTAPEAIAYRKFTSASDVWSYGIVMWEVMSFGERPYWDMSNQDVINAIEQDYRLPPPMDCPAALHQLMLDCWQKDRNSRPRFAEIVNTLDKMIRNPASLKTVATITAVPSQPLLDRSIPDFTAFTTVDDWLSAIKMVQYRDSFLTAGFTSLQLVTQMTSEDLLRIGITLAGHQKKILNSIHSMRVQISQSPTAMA
Sequence of Fyn (P06241 whole entry, looked up): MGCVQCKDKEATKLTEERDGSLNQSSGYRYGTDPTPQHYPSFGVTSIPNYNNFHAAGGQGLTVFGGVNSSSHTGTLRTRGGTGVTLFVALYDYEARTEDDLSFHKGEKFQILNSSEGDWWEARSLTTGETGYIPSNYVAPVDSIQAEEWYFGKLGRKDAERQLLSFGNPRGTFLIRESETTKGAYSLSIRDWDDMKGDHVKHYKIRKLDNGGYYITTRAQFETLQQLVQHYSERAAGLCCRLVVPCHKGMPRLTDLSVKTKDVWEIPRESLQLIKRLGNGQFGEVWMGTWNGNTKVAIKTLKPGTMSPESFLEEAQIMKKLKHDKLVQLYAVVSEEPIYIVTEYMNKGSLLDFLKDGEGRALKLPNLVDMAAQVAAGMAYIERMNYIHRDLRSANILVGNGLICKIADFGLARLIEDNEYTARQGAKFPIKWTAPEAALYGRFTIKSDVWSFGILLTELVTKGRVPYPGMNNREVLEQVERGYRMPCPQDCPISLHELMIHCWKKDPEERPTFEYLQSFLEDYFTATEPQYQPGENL
Sequence of Fes (P07332 whole entry, looked up): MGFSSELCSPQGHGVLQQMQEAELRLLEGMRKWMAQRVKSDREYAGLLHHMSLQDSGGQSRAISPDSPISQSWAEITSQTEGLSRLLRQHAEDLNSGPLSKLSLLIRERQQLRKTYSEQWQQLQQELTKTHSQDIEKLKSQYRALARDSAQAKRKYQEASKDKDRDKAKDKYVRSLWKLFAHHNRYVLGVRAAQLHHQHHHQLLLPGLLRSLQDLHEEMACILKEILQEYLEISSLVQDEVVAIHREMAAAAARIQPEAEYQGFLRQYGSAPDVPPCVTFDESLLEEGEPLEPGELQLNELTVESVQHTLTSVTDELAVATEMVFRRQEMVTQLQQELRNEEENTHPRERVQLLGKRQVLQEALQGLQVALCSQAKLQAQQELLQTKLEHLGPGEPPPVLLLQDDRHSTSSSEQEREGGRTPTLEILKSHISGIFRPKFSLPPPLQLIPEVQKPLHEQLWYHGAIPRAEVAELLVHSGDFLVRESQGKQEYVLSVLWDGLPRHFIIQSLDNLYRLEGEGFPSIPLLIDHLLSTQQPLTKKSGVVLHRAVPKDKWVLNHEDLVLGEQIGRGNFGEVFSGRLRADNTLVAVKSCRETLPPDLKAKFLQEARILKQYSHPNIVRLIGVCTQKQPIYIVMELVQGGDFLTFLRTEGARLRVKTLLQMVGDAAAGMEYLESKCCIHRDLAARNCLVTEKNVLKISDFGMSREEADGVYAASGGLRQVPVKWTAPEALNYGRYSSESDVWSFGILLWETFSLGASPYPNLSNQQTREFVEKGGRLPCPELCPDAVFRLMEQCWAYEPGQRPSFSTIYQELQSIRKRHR
Sequence of Hck (P08631 whole entry, looked up): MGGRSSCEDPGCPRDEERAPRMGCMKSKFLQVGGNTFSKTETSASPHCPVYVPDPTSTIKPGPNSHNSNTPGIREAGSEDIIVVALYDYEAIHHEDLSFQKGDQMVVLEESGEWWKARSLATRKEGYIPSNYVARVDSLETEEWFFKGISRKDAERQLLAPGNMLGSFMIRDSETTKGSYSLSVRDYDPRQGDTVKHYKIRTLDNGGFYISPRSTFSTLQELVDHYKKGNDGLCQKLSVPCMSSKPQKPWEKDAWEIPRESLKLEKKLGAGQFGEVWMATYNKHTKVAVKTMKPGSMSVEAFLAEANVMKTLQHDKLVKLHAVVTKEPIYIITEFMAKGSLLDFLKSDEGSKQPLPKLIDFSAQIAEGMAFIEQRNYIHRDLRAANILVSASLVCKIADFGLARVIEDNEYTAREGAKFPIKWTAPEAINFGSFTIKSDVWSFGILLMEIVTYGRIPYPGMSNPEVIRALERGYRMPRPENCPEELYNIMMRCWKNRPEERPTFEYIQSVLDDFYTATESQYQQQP
Sequence of FGFR1 (P11362 whole entry, looked up): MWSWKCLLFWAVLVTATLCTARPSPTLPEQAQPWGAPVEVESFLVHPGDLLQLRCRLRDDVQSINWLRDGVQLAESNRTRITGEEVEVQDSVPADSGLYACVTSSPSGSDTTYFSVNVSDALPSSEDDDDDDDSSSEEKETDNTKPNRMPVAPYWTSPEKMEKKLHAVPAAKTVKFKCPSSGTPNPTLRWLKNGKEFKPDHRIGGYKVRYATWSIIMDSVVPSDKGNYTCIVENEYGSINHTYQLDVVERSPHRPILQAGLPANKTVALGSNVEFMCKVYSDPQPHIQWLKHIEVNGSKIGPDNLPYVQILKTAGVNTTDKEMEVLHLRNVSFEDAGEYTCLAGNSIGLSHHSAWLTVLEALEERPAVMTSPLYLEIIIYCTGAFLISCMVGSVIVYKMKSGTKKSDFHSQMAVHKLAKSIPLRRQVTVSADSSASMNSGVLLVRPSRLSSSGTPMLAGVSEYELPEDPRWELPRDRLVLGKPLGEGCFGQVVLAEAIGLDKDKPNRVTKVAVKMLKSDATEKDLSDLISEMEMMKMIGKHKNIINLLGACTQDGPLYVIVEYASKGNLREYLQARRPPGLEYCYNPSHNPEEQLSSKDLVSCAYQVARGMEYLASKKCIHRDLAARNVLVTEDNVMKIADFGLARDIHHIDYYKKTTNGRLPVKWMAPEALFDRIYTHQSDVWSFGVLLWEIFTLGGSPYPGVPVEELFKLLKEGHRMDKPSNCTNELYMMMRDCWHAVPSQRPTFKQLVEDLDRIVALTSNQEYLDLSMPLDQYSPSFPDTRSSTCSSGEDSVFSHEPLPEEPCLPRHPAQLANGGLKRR

SH2 binding enrichment (SHP2-C SH2)	SH2 binding enrichment (c-Src SH2)	SH2 binding enrichment (Grb2 SH2)	Sequence	phosphorylation enrichment (Fes)	phosphorylation enrichment (Fer (mouse))	phosphorylation enrichment (Fyn)	phosphorylation enrichment (AncSZ)	phosphorylation enrichment (EPHB2)	phosphorylation enrichment (MERTK)	phosphorylation enrichment (EPHB1)	phosphorylation enrichment (FGFR3)	phosphorylation enrichment (c-Src)	phosphorylation enrichment (Jak2)	phosphorylation enrichment (Hck)	phosphorylation enrichment (c-Abl (mouse))	phosphorylation enrichment (FGFR1)
0.672	0.82	0.86	FSQQTYYRVSN [ABCD1_Y180]	0.756	0.392	1.18	0.831	1.06	2.85	1.83	4.51	3.18	6.78	3.2	0.72	6.2
0.822	1.23	1.02	KILGTYYETGS [PAX2_Y72_R71T]	0.936	0.466	0.769	0.875	0.641	1.01	0.66	1.61	1.29	0.653	0.818	0.592	1.85
0.78	0.645	1.12	LSQAKYQIRFR [CRLF1_Y272_F268S_YF]	0.672	0.499	0.621	0.933	0.286	0.499	0.682	0.596	0.421	0.63	0.431	0.597	0.558
0.616	0.613	0.767	MDDPRYGVCPL [ZNF100_Y6_M8V]	1.27	0.56	0.609	1.15	0.632	0.579	0.673	0.75	0.527	1.46	0.715	0.918	0.491
0.781	0.786	0.86	PLCPDYQEPSR [DDR2_Y481_R478C]	2	0.999	1.12	3.5	2.01	0.854	1.43	1.46	0.61	1.23	1.01	0.896	0.643
0.863	0.465	0.922	GVTLLCFGRFN [ADGRD1_Y85_Y85C_YF]	1.53	0.498	0.443	1.14	0.669	0.384	0.732	0.885	0.388	1.09	0.587	0.9	0.524
0.741	1.04	1.25	ELTTCYRKKCS [CCBE1_Y70_C75S]	0.816	0.362	0.454	0.764	0.565	0.467	0.431	0.501	0.444	1.12	0.458	0.64	0.536
0.786	0.527	0.761	IFLENYNAGTF [CFI_Y421_H418L_YF]	0.938	0.423	0.55	0.896	0.578	0.428	0.468	0.724	0.491	0.844	0.427	0.542	0.489
2.01	1.58	1.95	CTTIHYNFMCF [TP53_Y234_N239Y_YF]	1.12	0.671	0.414	1.04	0.522	0.409	0.608	0.738	0.474	0.913	0.451	0.683	0.621
1.64	9.92	0.848	YLRTGYSVPYG [TGM1_Y370]	0.685	0.489	0.42	0.834	0.534	0.666	0.4	0.532	0.408	0.893	0.493	0.777	0.495
0.771	0.714	0.835	RHFTGCRIELQ [INSR_Y818_Y818C]	1.49	0.503	0.403	0.779	0.778	0.421	0.545	0.672	0.508	0.884	0.613	0.665	0.488
0.794	0.591	1.12	IMVFVYSRVFQ [ADRB2_Y219]	1.16	0.487	0.445	0.961	0.484	0.448	0.554	0.786	0.486	0.93	0.435	0.844	0.445
1.38	1.04	1.38	IMITDYLLLFR [INSR_Y87]	1.18	0.513	0.467	1.21	0.647	0.399	0.678	1.2	0.481	1.55	0.502	0.829	1.36
0.633	0.749	0.873	GHEYIYVDPMQ [PDGFRA_Y574]	0.917	2.92	3.2	5.16	10.2	4.29	7.52	11.6	3.65	1.83	3.75	8.98	14.4
1.14	0.988	1.34	RHPFFYAPELL [ALB_Y174_YF]	1.99	1.06	1.32	1.61	1.04	0.839	1.18	0.969	1.05	1.97	0.733	1.12	1.25
1.7	1.01	1.42	RVGNMYMRGLS [ABCG8_Y209_V210M]	0.966	0.469	0.657	0.672	0.559	0.697	0.615	0.596	0.552	0.663	0.615	0.453	0.704

SH2 binding enrichment (SHP2-C SH2)	SH2 binding enrichment (c-Src SH2)	SH2 binding enrichment (Grb2 SH2)	Sequence	phosphorylation enrichment (Fes)	phosphorylation enrichment (Fer (mouse))	phosphorylation enrichment (Fyn)	phosphorylation enrichment (AncSZ)	phosphorylation enrichment (EPHB2)	phosphorylation enrichment (MERTK)	phosphorylation enrichment (EPHB1)	phosphorylation enrichment (FGFR3)	phosphorylation enrichment (c-Src)	phosphorylation enrichment (Jak2)	phosphorylation enrichment (Hck)	phosphorylation enrichment (c-Abl (mouse))	phosphorylation enrichment (FGFR1)
0.917	0.904	1.11	YKEQGYHRLPP [RIN1_Y681]	0.507	0.365	0.462	0.478	0.364	0.346	0.363	0.544	0.431	0.977	0.35	0.455	0.622
0.871	0.495	0.853	ETEMLYGSARR [PRC1_Y464_P468R]	0.78	1.27	2.66	0.886	0.451	0.38	0.416	0.601	2.81	0.521	4.55	0.638	0.429
0.744	0.802	1.18	GCRSKYVGLWR [KCNQ1_Y184_G189R]	0.519	0.42	0.401	0.638	0.325	0.394	0.411	0.591	0.365	0.395	0.36	0.409	0.382
0.546	0.647	0.746	YSPYDYQPCLA [TNS1_Y798]	1.28	3.46	4.27	2.3	4.75	5.67	3.32	1.84	3.49	1.07	2.41	0.973	2.63
1.84	0.495	0.896	VKYLGYPPPEI [KDR_Y357_A352V]	0.719	0.37	0.486	0.7	0.491	0.427	0.468	0.626	0.403	0.489	0.451	0.796	0.666
0.563	0.493	0.83	AHDGEYGAEAL [HBA1_Y25_A22D]	1.08	0.534	0.552	0.97	0.62	0.451	0.556	0.645	0.424	0.819	0.445	0.608	0.513
0.734	0.629	1.19	PSAELYSNALP [PDGFRB_Y716]	1.79	7.66	1.66	1.55	1.91	7.96	2.63	1.73	1.38	0.849	3.02	0.96	1.79
0.363	0.296	0.295	RKRQFYLFKGK [RSPO4_Y112_C107R_YF]	0.949	0.787	1.14	1.15	0.71	1.22	0.741	0.803	0.809	1.06	1.19	1.25	0.555
0.66	0.382	0.915	NDFGNYNQQPS [HNRNPA2B1_Y306]	0.85	0.472	0.596	0.764	0.604	0.478	0.691	0.493	0.505	0.788	0.504	0.74	0.589
0.876	0.454	0.767	SLALFYRKVFH [RBL1_Y792_YF]	1.26	0.494	0.502	1.36	0.569	0.385	0.637	0.784	0.409	1.11	0.441	0.535	0.532
0.827	0.855	0.684	SVVVPYDPPEV [TP53_Y220_E221D]	1.08	0.465	0.48	1.02	0.51	0.373	0.543	0.711	0.499	1.01	0.488	0.629	0.56
0.79	0.616	0.953	ATVRPYRPFII [LRP5_Y1528_A1525V_YF]	0.61	0.406	0.397	0.653	0.336	0.395	0.438	0.459	0.493	0.644	0.462	0.505	0.418
0.557	0.406	0.983	QDGFSYLSRQM [LDLR_Y847_P848L_YF]	1.07	0.636	0.772	0.985	0.797	0.413	0.584	0.995	0.461	0.844	0.748	0.563	0.872
0.876	3.04	0.813	SSQHRYSTPHT [RAF1_Y232_A237T]	0.477	0.425	0.348	0.45	0.37	0.405	0.343	0.369	0.423	0.487	0.312	0.448	0.352
0.648	0.426	0.691	ISKKIYDPIHD [CTNNA3_Y614_T616P]	0.694	0.446	0.636	0.57	0.475	0.455	0.48	0.529	0.541	0.516	0.731	0.445	0.436
1.3	1.24	1.63	KMKGEYFRFLA [YWHAG_Y130_D129E_YF]	0.93	0.7	1.75	0.791	0.567	0.598	0.678	2.58	2.76	2.04	0.783	1.4	3.77

Sequence	SH2 binding enrichment (SHP2-C SH2)	SH2 binding enrichment (c-Src SH2)	SH2 binding enrichment (Grb2 SH2)	phosphorylation enrichment (Fes)	phosphorylation enrichment (Fer (mouse))	phosphorylation enrichment (Fyn)	phosphorylation enrichment (AncSZ)	phosphorylation enrichment (EPHB2)	phosphorylation enrichment (MERTK)	phosphorylation enrichment (EPHB1)	phosphorylation enrichment (FGFR3)	phosphorylation enrichment (c-Src)	phosphorylation enrichment (Jak2)	phosphorylation enrichment (Hck)	phosphorylation enrichment (c-Abl (mouse))	phosphorylation enrichment (FGFR1)
SIKDKYVTVLF [KCNH2_Y611_A614V_YF]	10.8	0.669	1.04	0.91	0.392	0.442	0.763	0.48	0.375	0.481	0.646	0.361	0.743	0.546	0.549	0.482
